# B1: E3 ubiquitin-protein ligase UBR1 (Saccharomyces cerevisiae), P19812 (parent)
# chain: MSVADDDLGSLQGHIRRTLRSIHNLPYFRYTRGPTERADMSRALKEFIYRYLYFVISNSGENLPTLFNAHPKQKLSNPELTVFPDSLEDAVDIDKITSQQTIPFYKIDESRIGDVHKHTGRNCGRKFKIGEPLYRCHECGCDDTCVLCIHCFNPKDHVNHHVCTDICTEFTSGICDCGDEEAWNSPLHCKAEEQENDISEDPATNADIKEEDVWNDSVNIALVELVLAEVFDYFIDVFNQNIEPLPTIQKDITIKLREMTQQGKMYERAQFLNDLKYENDYMFDGTTTAKTSPSNSPEASPSLAKIDPENYTVIIYNDEYHNYSQATTALRQGVPDNVHIDLLTSRIDGEGRAMLKCSQDLSSVLGGFFAVQTNGLSATLTSWSEYLHQETCKYIILWITHCLNIPNSSFQTTFRNMMGKTLCSEYLNATECRDMTPVVEKYFSNKFDKNDPYRYIDLSILADGNQIPLGHHKILPESSTHSLSPLINDVETPTSRTYSNTRLQHILYFDNRYWKRLRKDIQNVIIPTLASSNLYKPIFCQQVVEIFNHITRSVAYMDREPQLTAIRECVVQLFTCPTNAKNIFENQSFLDIVWSIIDIFKEFCKVEGGVLIWQRVQKSNLTKSYSISFKQGLYTVETLLSKVHDPNIPLRPKEIISLLTLCKLFNGAWKIKRKEGEHVLHEDQNFISYLEYTTSIYSIIQTAEKVSEKSKDSIDSKLFLNAIRIISSFLGNRSLTYKLIYDSHEVIKFSVSHERVAFMNPLQTMLSFLIEKVSLKDAYEALEDCSDFLKISDFSLRSVVLCSQIDVGFWVRNGMSVLHQASYYKNNPELGSYSRDIHLNQLAILWERDDIPRIIYNILDRWELLDWFTGEVDYQHTVYEDKISFIIQQFIAFIYQILTERQYFKTFSSLKDRRMDQIKNSIIYNLYMKPLSYSKLLRSVPDYLTEDTTEFDEALEEVSVFVEPKGLADNGVFKLKASLYAKVDPLKLLNLENEFESSATIIKSHLAKDKDEIAKVVLIPQVSIKQLDKDALNLGAFTRNTVFAKVVYKLLQVCLDMEDSTFLNELLHLVHGIFRDDELINGKDSIPEAYLSKPICNLLLSIANAKSDVFSESIVRKADYLLEKMIMKKPNELFESLIASFGNQYVNDYKDKKLRQGVNLQETEKERKRRLAKKHQARLLAKFNNQQTKFMKEHESEFDEQDNDVDMVGEKVYESEDFTCALCQDSSSTDFFVIPAYHDHSPIFRPGNIFNPNEFMPMWDGFYNDDEKQAYIDDDVLEALKENGSCGSRKVFVSCNHHIHHNCFKRYVQKKRFSSNAFICPLCQTFSNCTLPLCQTSKANTGLSLDMFLESELSLDTLSRLFKPFTEENYRTINSIFSLMISQCQGFDKAVRKRANFSHKDVSLILSVHWANTISMLEIASRLEKPYSISFFRSREQKYKTLKNILVCIMLFTFVIGKPSMEFEPYPQQPDTVWNQNQLFQYIVRSALFSPVSLRQTVTEALTTFSRQFLRDFLQGLSDAEQVTKLYAKASKIGDVLKVSEQMLFALRTISDVRMEGLDSESIIYDLAYTFLLKSLLPTIRRCLVFIKVLHELVKDSENETLVINGHEVEEELEFEDTAEFVNKALKMITEKESLVDLLTTQESIVSHPYLENIPYEYCGIIKLIDLSKYLNTYVTQSKEIKLREERSQHMKNADNRLDFKICLTCGVKVHLRADRHEMTKHLNKNCFKPFGAFLMPNSSEVCLHLTQPPSNIFISAPYLNSHGEVGRNAMRRGDLTTLNLKRYEHLNRLWINNEIPGYISRVMGDEFRVTILSNGFLFAFNREPRPRRIPPTDEDDEDMEEGEDGFFTEGNDEMDVDDETGQAANLFGVGAEGIAGGGVRDFFQFFENFRNTLQPQGNGDDDAPQNPPPILQFLGPQFDGATIIRNTNPRNLDEDDSDDNDDSDEREIW
# partner: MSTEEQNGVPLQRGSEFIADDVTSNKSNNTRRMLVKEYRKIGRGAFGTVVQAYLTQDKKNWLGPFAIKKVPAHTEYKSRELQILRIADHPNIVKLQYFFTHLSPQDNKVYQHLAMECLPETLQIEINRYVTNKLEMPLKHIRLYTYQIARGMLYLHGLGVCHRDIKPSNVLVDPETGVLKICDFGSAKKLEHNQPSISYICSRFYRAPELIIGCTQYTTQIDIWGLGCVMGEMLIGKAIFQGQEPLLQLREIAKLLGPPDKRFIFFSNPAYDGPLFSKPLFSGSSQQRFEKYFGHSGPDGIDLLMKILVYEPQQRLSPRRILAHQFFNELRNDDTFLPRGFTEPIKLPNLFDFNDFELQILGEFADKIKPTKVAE
# B2: Protein kinase MCK1 (Saccharomyces cerevisiae), P21965 (parent)
# chain: B1 partner
# Variants of: B1
# Settings: with mck1_yeast MCK1, P21965
row,effect of a mutation on the interaction,Variant
1,disrupting interaction,Y277F

# Variants of: B2
# Settings: with ubr1_yeast UBR1, P19812
row,effect of a mutation on the interaction,Variant
1,disrupting interaction,MSTEEQNGVPLQRGSEFIADDVTSNKSNNTRRMLVKEYRKIGRGAFGTVVQAYLTQDKKNWLGPFAIKKVPAHTEYKSRELQILRIADHPNIVKLQYFFTHLSPQDNKVYQHLAMECLPETLQIEINRYVTNKLEMPLKHIRLYTYQIARGMLYLHGLGVCHRAIKPSNVLVDPETGVLKICDFGSAKKLEHNQPSISYICSRFYRAPELIIGCTQYTTQIDIWGLGCVMGEMLIGKAIFQGQEPLLQLREIAKLLGPPDKRFIFFSNPAYDGPLFSKPLFSGSSQQRFEKYFGHSGPDGIDLLMKILVYEPQQRLSPRRILAHQFFNELRNDDTFLPRGFTEPIKLPNLFDFNDFELQILGEFADKIKPTKVAE [D164A]

# — IntAct's records for PubMed 19033468
